Measurements published in the NTF2 design screens of Basanta et al. (2020).

Experiment: protease stability score; higher = more stable; yeast display proteolysis, trypsin and chymotrypsin;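 note: relative to predicted unfolded state with 0 unfolded-like and 1 meaning tenfold more protease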

Sequence: DDSAKWTEIALKIKSHDSDTGNEEKIRRLLDPNVRIEINGQEIHGRDKISKWLSEIRIQIEHVDTERYELQGNKAIVDGRMHIKVSYGDKEMHFDIKFEIEVHKVDGQWLIHSERII
- protease stability score: 0.754

Sequence: DDSDEHTKRATDELRHNLRTGDEERILKLVDPNARIDINGVKVIGWHMVEELVRKFWEEMRVEELEIHDMKVYGDKAIVDGYVEQRQGNKFIYIKTEIIKVKIDGRWILTELRFR
- protease stability score: 0.57

Sequence: DDSDQANKIMLEVLRRKLDTGDEDSIRKLADPHARIVIGDKTIHGMDEHTNELRHMLELWGVDRVELHIRHVEKQGDKLRVDGELHFNGVSVRVIFLHEKINGRWFMRHTEIR
- protease stability score: 0.984

Sequence: DDSEEDALRILELLSDSMETGNWRLVSELLDPHVRLEVGDKTWVGMEEMKRLANQIRIHVHRVKFHHIDNFNGRVRVDGHIHGEIIVGDKIYRFRTRIEIDAVKINGQWVIEEMRIG
- protease stability score: 1.61

Sequence: DDSEEHAEEVVRELSESLRTGDEKSVDRLLDPNVKFIINGVEYVGRELFLELFKKTLEEIRIESIEVTHIDIQGEKVRLETKEHAIINGKRFQFKTEVIMRKVNGRWEIQELRFE
- protease stability score: 1.98

Sequence: DDSEHWARRFIHLLKRSLETGDEHLNKELADPHARIEVNGRELHGREDFSETLVRMGFNHVHITDFDVQGDKIELHIETDVGDKKIQVEFIVEKVNGRWLNRSMHIRIH
- protease stability score: 0.832

Sequence: DDSERILRWFWNVLAESIETGDEEVMKELFDPNTRIHVNGQDHIGMEHRTRLASEMRITLYRVDLKRIHEVDGRIVLHIEVETHGTINGRLEHSKVRVQIIVSKIDGKWRMHQVEVK
- protease stability score: 1.38

Sequence: DDSHKKLKHAFELLLHALRTGDEDLLKELIDPEVRILFNGKIFHGREWWEHLLRHIRFKDIHIKNIDIQGDKLRVDSRLHIIIDGRHVDFEAEFYIVKVDGRWFTEEIVIK
- protease stability score: 2.21

Sequence: DDSQDIAKTMVDIITKNSLTGDEENFEHLVDPDARLTVNGVELHGREDVVRWMKHARIHDTRVRHIRVQGNKIEVDSESRVDINGKENEMKFKLIFIKVNGQWHIRDIEIR
- protease stability score: 2.13

Sequence: DDSRRVAEEVSELIKILYDTGDWRHLHELLDPHVRIEIGDKEFHGRDTWLREMIRADHVEYHTHDYRSQGNKIFIRGHLIVHINGRTHKEDVRLHVHKVDGQWIIDSIEMK
- protease stability score: 1.01

Sequence: DDSSELLRKLLEELLRAYKTGDFDTLIEFFDPDVKLEFNGREVHGMDHFISEHRHFIRRFPGIRIHIDDVKWHTQGDKAQLHMDGTEDFDGKRRRVELIFIIEKFDGRWFFSSIRWHNI
- protease stability score: 1.53

Sequence: DDTDKLLKEYLEMEMEMIRTGNEHIFTRLADPNVRIEQGDKHFHGREEYKRLMEEHFEKIQHAKIEFRVHDIKRIGDKMYIRGEFIVHVGEYHESQDRIFINRKIDGRWYVEEIIIR
- protease stability score: 1.25

Sequence: DDTDRRSRILTELSLNLFRTGDWKLFEEMADPHARMSMDVDGKELRHHGRESVSHVWHRQLFELGVDHYDLHDVKVIDGVMHVFSEVKVGDKRLELLIVAEKVNGKWHIREVHIKII
- protease stability score: 0.202

Sequence: DDTEDLATELSKIIRTVLRTGDWHTLRELADPNMRLNVNGQERHGMDLVREIHLNAGWQRVTVIIRHLHIDENEMHLETETRYDGQKHRVHVHVKKINGRWVIDFIIIH
- protease stability score: 1.09

Sequence: DDTKKHMEKIFRLMIEWWETGDFDRMENNADPHVRAHIGDKEIHGREEMIKLIRELIEELGIDHEETEEVRVYDGRIHVHSRLHINGKEIEVQLHSQVVDGRIESFELHVITR
- protease stability score: 1.05

Sequence: DDTLRDLFHLIELFHKALKTGDEQKMRENLDPHAKFDWDGRDYVGMEEVVKYVVEARIESTFHIHSVRKIGNKLDVDGTFSLEVDYNGKKEDIHSRQHHFIYKVDGQWIIKRIIIK
- protease stability score: 0.537

Sequence: DDTRELSKHWHERWLHAHETGDEELLLSLLDPHVRLEVGDKHLIGRDKLKWHMEEEIEFFKNAKLHVRRVSIQGNKIEMELEVRIDGVRHEVHIHYDIIDGRITRFEVRIV
- protease stability score: 0.21

Sequence: DDVEKDARWLVDELIHLLETGDEDTLLKLADPNTRIEIGDFHFHGRRDLKRILHEMRVKLDHLRIEHLDAQGEWIYIQFHYHQTINVNGRVVHEQRRVELESIKINGRWTIHFFKVK
- protease stability score: 1.28

Sequence: DDVEKLTREWFEKYLHTIQTGDEHSFERLADPNVRLHAENREYHGMEVISERLREEQDKFKGLRITHFHITHIINNEDEMYVDGRIVVEWNGQKEILTVHLIAFKVNGKWILKRYVKK
- protease stability score: 1.78

Sequence: DDVERIVKHMLELHIQSWLTGNEHLMHRLADPNVRSHIGDKERVGRHELSEMMIKHWEHLRIHRVEIRDSDVVGEKAESNTHVVVIFNGVEVRFDVRIEVVSINGRLHSSHIIIE
- protease stability score: -0.029

Sequence: DDVHEDATRAIKILKHNLETGDEDKLMTMMDPNVRFEDGNKHAHGREQTVQVLLEIIEKLGVSKFSHEIKDLKIVDGKLHLHGTLKVDGKTVDLEVVSLKINGRWLIKSIHLH
- protease stability score: 1.19

Sequence: DDWEEEVHKFSRLFIKSVETGDEDTLHKFADPNVMLHQGDKEYHGREMFVRWSNELLRHLGVSKVRARMHDDKAYNGVVHLDLENRFNGRTVRIEVRIEKINGKWLMTEVRIE
- protease stability score: 0.622

Sequence: DDWEEILREMIERWLKIFLTGDEEQLQRLADPDTRLNFNGREHHGMETLRRWRHRYEEEMRVRRINVKHEEFQGEKIRMDTELHTEVNGVKIITRTELIFIIINGRIKEVEIRVK
- protease stability score: 0.853

Sequence: DDWEEVLKDFLKKYFEALHTGNEELFLLMLDPHVKFDWNGQKMVGREKEIETLRREIKSAGVTRIERELEIKDTRLVDGRLRIDLSIHLNFNGRKFEIDVELHLNKINGRWEIESIKYR
- protease stability score: 1.15

Sequence: DDWEEVTRRSVEEFIRAIDTGDEDFLRTMVDPDTRVEINGVEVHGMEELMRLFSEHIKKVKNIRFHLEIRHVESQGDKIRIEGHEESNVDGRHRKKSTEMHWIKVDGRWFLHRVILR
- protease stability score: 1.39

Sequence: DDWEKLYEELTRLWLKLLITGDEEILIKLMDPHYRYHQGDKELHGRESYAEEVRREYEHARVKIHVERIHVFENHVEVNGELKIEINGRHYSIRTRIHLNIVNGKIKSIEIRTD
- protease stability score: 1.39

Sequence: DDWERLYLHLARLWFELILTGDEETIDKMVDPHTRLEIGDFESHGREELRYLFHHMRSHEIRIRSFDTYGDKAIIDGEIDTIINGRRMIVKIRLHVIIINGRVHSIKVEHE
- protease stability score: 1.08

Sequence: DDWHEEMREMLELLLRALFTGDEKHLVENLDPNVKIIFDGKDLHGRRDASKLIHEYGVDHITRHKIHDSKFFNGRLDVDGIFDQTVNGRREEVHRRIILLKFDGRWWIHRIEIR
- protease stability score: 1.63

Sequence: DDWHEILKHHFDNEVESILTGDEDSIKKMIDPHVRLEVNGREVHGMEEFARVMIEIRFRRIDLRERDIFNGVLHLRLEVDWEYGDKRFETEEEVVYFKVNGRWILESMRVR
- protease stability score: 1.26

Sequence: DDWLEDTKRLLEEFRQAINTGDEELLKILFDPHVRMNIDGVELHGRSVLEHFLERYDVIKVRRHHITDLKFQGNYLIIHLKTDIQIDIGDKHYKEEREVEMVVEKVNGRWIIRLMTER
- protease stability score: 1.4

Sequence: DDYDHITELALREIERVLHTGDEEDLRRMIDPHVRIDIDGKDIHGWENLFKHIEEERRRFPNLQIDWELKDTRKQGDKIILHGQIHIQQGDKEIERDFTIKAVKINGQWIVKTFHIR
- protease stability score: 1.63

Sequence: DDYEKDDKHFLNVFLHMLETGDWEKLEKLADPRVRQDVDGVEYHGMEEAVEVWHRLRHKFKGLTLREVTIHDIRTIDGKIDLDVEFHFDFNGREISRRVIIIVDKINGRWELKSMKEK
- protease stability score: 0.074

Sequence: DDYEKSSKVVWQILVRALETGDEEELRDLFDPHVRIQIGEFHFHGWETVHEHMRRADHIIVRDSKSRDIDHQGNKVILHVDLHIEFTYNGVERSTTFRSNMIMVKVNGKWVIEKIHLQ
- protease stability score: 1.55

Sequence: DEADRFREFAKRLYLEKSNTGDWEELIRLFDPHARYEYGDKEMHGRDTIDFLREMLGIDRIQLRHVNDHSVDLQGDKIHIDGTVVEEWNGQEYRSRVILILRKVDGRWYLETMHVD
- protease stability score: 0.409

Sequence: DEAEEHMRRYSELMMKSFLTGDEHTLRKLADPHTKLIFNGKELHGREEVARVFTWSREELGVDHQDVRHVSVRLVDGRVHVDIILEVNVGDKRFQVHIHLTILKYDGRWFVESVHIEIR
- protease stability score: 0.285

Sequence: DEAHEWLKTLADLFFHWMLTGDFEHWIDYLDPDAKIEFEGRSNHGRENIYQLLLELKQEIRVRDYELKDVRIQGEKLLLNVHLHGHIGDKEIRTDTVLRLRVVDGRLKEVHIEIR
- protease stability score: 1.52

Sequence: DEAQEIVEFVFKILAEFQETGDEDSLKHLLDPNVRILQGNKELHGRDQNIKRLREELDRFGVDKFRVELRLEHVTIIDGRLHLDMRLNLDVNGVEIRLEVHFVLIKVDGQWSIHEVRFH
- protease stability score: 1.61

Sequence: DEARVIFEEFIRQLLHAIRTGDFDLYRHLADPHVQVEIGDKVFWGREVITEFEDDLLRRMGVNHVDMRIRIFEIIDGRIHIVGEHRIDVNGRDEHIDTRVLVHKVDGRWVLRRERRT
- protease stability score: 0.647

Sequence: DEATEAWRVVVELIKRANETGDEETRSENMDPETRMSIDGVDFIGREEVIKHVHKVKNMRIKHVEINDVRIQGDKIHVRGTLHGTVNGRETRIDVVLYVWKINGQWIIHSIEFI
- protease stability score: 1.5

Sequence: DEATEKAKKAYELWMHSLKTGDEHHLKNLMDPDVRVIIDGVDMHGWEAAHFERRRFDHIHRVHVDHYEFQGNKSIWDGTVDGKVGDKEHRNRRIIIMNVVDGRYKSIHLHVE
- protease stability score: 0.991

Sequence: DEATKDAERIIEMFIRAIETGDEKVFKRLLDPNVRLVVDGKEFHGREKFIEWLRRIDVTHQVHFRLHDSDMQGDKLHLDSSEIHDVKYNGVRFVDHYRVHLQIHKFDGRWHLENIIIR
- protease stability score: 1.51

Sequence: DEATKSAEIAVRLLKKTQDTGNEELERKLVDPHVRVDVNGRESHGWEHLVEIIREMRVHSLTVTRSEVQGNKVFNDGILDGEINGVRVHIYIHIIIEKINGQWVIRELRFH
- protease stability score: 0.803

Sequence: DEDAHLIEHLVHLMLHATNTGDEDILKDLMDPNMKIQIGDKEFHGREEFEEMHRRADHLETTDWKLHSVDIQGDKIHLDTRVDRVIIINGKITREDTRTELDVRKIDGRWVVTRISVE
- protease stability score: 1.27

Sequence: DEDDDLALHMFELLLHVWTTGDERIMHELLDPHARLDFNGRTFHGREAFIHYMHEIFRHIRINDSTVRHIRVIDGRLDIESHVDIRVGDKRFEMETHLIVLKVDGKWQVTLYKLS
- protease stability score: 1.4

Sequence: DEDDEAAEMAVRFFIEILLTGNENIHSKLLDPNVKVNIGEFESIGRKEVEKTFKEFVHHMWIRHIEVHKWSVYDGQVDVESRLDGQVNGQHVNVEVLIIIVKINGKWFLRSLDFR
- protease stability score: 1.71

Sequence: DEDDEAAQEAVKIVEEVTKTGNWRVLLELLDPHTRVHTEHHELHGMEEYVREVQKMMQDFGVTKVEVRFHEIIIIGEKIHMRVTIHVNGVTLDTEVVSLKYNGRWYLHTLRMK
- protease stability score: 1

Sequence: DEDDEAVKRFIDEFVHSMRTGDEEKLYRLADPHVRSVIDGVEFVGMHWLTTELHHLRVQRLEFEFKDIHFQGDKAHVRGHLILTLHFNGREYVVRREVELIILKINGRWHLHEFIWR
- protease stability score: 1.68

Sequence: DEDDEDADNAIRLIVHSMLTGNEDFFSRLLDPNVRLDYNGVEFIGREDVVRFWNQMRFEFRVEVRRTSSQGDKVNWDIRLRIILHFNGKRHDRLHDTVLISRKYNGKWHVEQIEVR
- protease stability score: 1.54

Sequence: DEDDEDSEEASRRMVETHLTGDEDKQSKMMDPNVKFLFNGVEFHGWELLHKIWTEFGIKHHQLKSVEVRNINGQVRVHVDGVIDVNGVSLKSELNFVAEKVDGRWRVKRIEIHIR
- protease stability score: 1.58

Sequence: DEDDEDTRRLLKLLSDAEETGDEELLRHLADPHVRVHVGDKEWHGWDAFVRFLRHIRIETFHVRRIRVQGDKVDVDGQTVVTINGRRHELKTTIILIKIDGQWVIEKLTIH
- protease stability score: 1.79
